This note sets out measurements from the Human Domainome abundance scans (Beltran et al. 2025).

± gives the uncertainty stated by the source.

The data set can be described thus: abundance fitness (aPCA) (normalised: wild type 0, dead -1); higher = more abundant; growth selection in yeast, the domain comes from the species named. Particulars: Homo sapiens.
The substance “Transcriptional activator Myb A167C, P10242” registered an abundance fitness of -0.17 ± 0.12.
On to “Transcriptional activator Myb A167D, P10242”, for which the abundance fitness is -0.177 ± 0.16.
The figure for “Transcriptional activator Myb A167E, P10242” is 0.009 ± 0.13; for “Transcriptional activator Myb A167F, P10242” it is -0.092 ± 0.12.
In the case of “Transcriptional activator Myb A167G, P10242”, the abundance fitness is 0.045 ± 0.06.
Consider “Transcriptional activator Myb A167H, P10242”, for which the abundance fitness turned out to be 0.258 ± 0.24.
Substance “Transcriptional activator Myb A167I, P10242” registered an abundance fitness of -0.253 ± 0.22.
The substance “Transcriptional activator Myb A167K, P10242” yielded an abundance fitness of -0.124 ± 0.11.
“Transcriptional activator Myb A167L, P10242” showed an abundance fitness of -0.224 ± 0.079.
In the case of “Transcriptional activator Myb A167M, P10242”, the abundance fitness is -0.313 ± 0.15.
The same measure for “Transcriptional activator Myb A167N, P10242”: -0.058 ± 0.11; for “Transcriptional activator Myb A167P, P10242”: 0.037 ± 0.12; for “Transcriptional activator Myb A167Q, P10242”: 0.015 ± 0.14.
“Transcriptional activator Myb A167R, P10242” gave an abundance fitness of -0.146 ± 0.069.
In turn, “Transcriptional activator Myb A167S, P10242” showed an abundance fitness of -0.095 ± 0.09.
Consider “Transcriptional activator Myb A167T, P10242”, for which the abundance fitness was -0.126 ± 0.12.
For the substance “Transcriptional activator Myb A167V, P10242”, the abundance fitness is -0.083 ± 0.1.
The figure for “Transcriptional activator Myb A167W, P10242” is -0.27 ± 0.063; for “Transcriptional activator Myb A167Y, P10242” it is -0.172 ± 0.12; for “Transcriptional activator Myb A170C, P10242” it is -0.137 ± 0.13.
The figure for “Transcriptional activator Myb A170D, P10242” is -0.692 ± 0.12.
“Transcriptional activator Myb A170E, P10242” had an abundance fitness of -0.285 ± 0.12.
Consider “Transcriptional activator Myb A170F, P10242”, for which the abundance fitness is -0.896 ± 0.19.
The same measure for “Transcriptional activator Myb A170G, P10242”: -0.229 ± 0.058.
The same measure for “Transcriptional activator Myb A170H, P10242”: -0.716 ± 0.26.
In the case of “Transcriptional activator Myb A170I, P10242”, the abundance fitness is -1.45 ± 0.42.
The same measure for “Transcriptional activator Myb A170K, P10242”: -0.581 ± 0.14; for “Transcriptional activator Myb A170L, P10242”: -0.743 ± 0.082.
For the substance “Transcriptional activator Myb A170M, P10242”, the abundance fitness was -0.393 ± 0.11.
As for “Transcriptional activator Myb A170N, P10242”, the abundance fitness is -0.655 ± 0.28.
The same measure for “Transcriptional activator Myb A170P, P10242”: -0.809 ± 0.18.
The substance “Transcriptional activator Myb A170Q, P10242” registered an abundance fitness of -0.056 ± 0.094.
“Transcriptional activator Myb A170R, P10242”: the abundance fitness was -0.516 ± 0.059.
“Transcriptional activator Myb A170S, P10242” yielded an abundance fitness of -0.038 ± 0.087.
The substance “Transcriptional activator Myb A170T, P10242” came in with an abundance fitness of -0.771 ± 0.12.
The substance “Transcriptional activator Myb A170V, P10242” yielded an abundance fitness of -0.428 ± 0.063.
Substance “Transcriptional activator Myb A170W, P10242” registered an abundance fitness of -0.811 ± 0.12.
As for “Transcriptional activator Myb A170Y, P10242”, the abundance fitness is -1.08 ± 0.18.
